{
  "source": "paper PMC5914118",
  "about": "“Exploiting the Concept of Multivalency with ^68Ga- and ^89Zr-Labelled Fusarinine C-Minigastrin Bioconjugates for Targeting CCK2R Expression” (Contrast Media & Molecular Imaging, 2018)",
  "key": {"[1]": {"system": "A431-CCK2R/A431-mock tumour xenografted BALB/c nude mice", "conditions": "mouse, in vivo; for Biodistribution: A431-CCK2R tumour (receptor positive) / Biodistribution: A431-mock tumour (receptor negative) / Biodistribution: Blood / Biodistribution: Bone / Biodistribution: Heart / Biodistribution: Intestine / Biodistribution: Kidneys / Biodistribution: Liver / Biodistribution: Lung / Biodistribution: Muscle / Biodistribution: Pancreas / Biodistribution: Spleen / Biodistribution: Stomach: 1 h", "description": "All animal experiments were conducted in compliance with the Austrian and Dutch animal protection laws and with approval of the Austrian Ministry of Science (BMWF-66.011/000604-II/3b/2012 and BMWFW-66.011/0049-WF/II/3b/2014). In vivo stability studies were conducted in 5-week-old female BALB/c mice (in-house breed, ZVTA Innsbruck, Dr. Hermann Dietrich). The biodistribution studies were performed using female 8−10-week-old athymic BALB/c nude mice (Charles River Laboratories, Sulzfeld, Germany). Tumour xenografts were induced by subcutaneous injection of 2 × 10^6 A431-CCK2R cells (receptor positive) in the right and the same amount of A431-mock (receptor negative) in the left flank. Tumours were allowed to grow until they had reached a volume of 0.3–0.6 cm^3. To evaluate the biodistribution profile nude mice (n = 4) were intravenously injected with either 1-2 MBq ^68Ga- or 0.3 MBq ^89Zr-labelled mono-, di-, and trimer (0.1–0.2 nmol). The animals were sacrificed by cervical dislocation after 1 h as well as 2 h and 4 h in case of ^68Ga- and ^89Zr-labelled trimer, followed by the collection of organs and tissue. The collected samples were measured in the gamma counter and the results were calculated as percentage of injected dose per gram tissue (% ID/g)."}, "[2]": {"assay_type": "physicochemical", "description": "Aliquots (50 μL) of ^68Ga- and ^89Zr-labelled mono-, di-, and trimer (10 μM) were diluted in 450 μL PBS. After adding 500 μL octanol the mixture was vortexed with 1400 rpm (MS 3 basic vortexer, IKA, Staufen, Germany) for 15 min at RT followed by centrifugation for 2 min at 4500 rpm. Subsequently, 100 μL aliquots of the organic and the aqueous layer were collected and logD values were calculated using Excel (n = 3, six replicates) after gamma counter measurement."}},
  "note": "Marks after values point to notes of the source that are not given here.",
  "data": [
    {"smiles": "CSCC[C@H](NC(=O)[C@H](Cc1c[nH]c2ccccc12)NC(=O)CNC(=O)[C@H](Cc1ccc(O)cc1)NC(=O)[C@H](C)NC(=O)[C@@H](CCC(=O)O)NC(=O)CCSC1CC(=O)N(CCC(=O)NC2CCCN(O)C(=O)C=C(C)CCOC(=O)C(NC(C)=O)CCCN(O)C(=O)C=C(C)CCOC(=O)C(NC(C)=O)CCCN(O)C(=O)C=C(C)CCOC2=O)C1=O)C(=O)N[C@@H](CC(=O)O)C(=O)N[C@@H](Cc1ccccc1)C(N)=O", "note": "(stereo partly shown) [^68Ga-labelled Monomer, metal not drawn]", "values": [
      {"measurement": "Tumour-to-organ ratio (T/O): A431-mock", "setting": "[1]", "value": "16.3 ± 3.3^bd"},
      {"measurement": "Tumour-to-organ ratio (T/O): Blood", "setting": "[1]", "value": "14.4 ± 3.6^b"},
      {"measurement": "Tumour-to-organ ratio (T/O): Bone", "setting": "[1]", "value": "17.1 ± 7.4^bd"},
      {"measurement": "Tumour-to-organ ratio (T/O): Heart", "setting": "[1]", "value": "29.5 ± 9.3^bd"},
      {"measurement": "Tumour-to-organ ratio (T/O): Intestine", "setting": "[1]", "value": "9.4 ± 3.7^b"},
      {"measurement": "Tumour-to-organ ratio (T/O): Kidneys", "setting": "[1]", "value": "0.86 ± 0.13^abd"},
      {"measurement": "Tumour-to-organ ratio (T/O): Liver", "setting": "[1]", "value": "21.1 ± 3.1^abd"},
      {"measurement": "Tumour-to-organ ratio (T/O): Lung", "setting": "[1]", "value": "11.7 ± 2.1^bd"},
      {"measurement": "Tumour-to-organ ratio (T/O): Muscle", "setting": "[1]", "value": "20.4 ± 1.8^b"},
      {"measurement": "Tumour-to-organ ratio (T/O): Pancreas", "setting": "[1]", "value": "16.7 ± 3.0^bd"},
      {"measurement": "Tumour-to-organ ratio (T/O): Spleen", "setting": "[1]", "value": "27.3 ± 6.3^b"},
      {"measurement": "Tumour-to-organ ratio (T/O): Stomach", "setting": "[1]", "value": "4.6 ± 1.1^b"},
      {"measurement": "Biodistribution: A431-CCK2R tumour (receptor positive)", "setting": "[1]", "value": "4.86 ± 1.00^d % ID/g"},
      {"measurement": "Biodistribution: A431-mock tumour (receptor negative)", "setting": "[1]", "value": "0.30 ± 0.04^b % ID/g"},
      {"measurement": "Biodistribution: Blood", "setting": "[1]", "value": "0.35 ± 0.06^ab % ID/g"},
      {"measurement": "Biodistribution: Bone", "setting": "[1]", "value": "0.31 ± 0.08^b % ID/g"},
      {"measurement": "Biodistribution: Heart", "setting": "[1]", "value": "0.17 ± 0.02^ab % ID/g"},
      {"measurement": "Biodistribution: Intestine", "setting": "[1]", "value": "0.58 ± 0.17^b % ID/g"},
      {"measurement": "Biodistribution: Kidneys", "setting": "[1]", "value": "5.57 ± 0.57^abd % ID/g"},
      {"measurement": "Biodistribution: Liver", "setting": "[1]", "value": "0.23 ± 0.02^ab % ID/g"},
      {"measurement": "Biodistribution: Lung", "setting": "[1]", "value": "0.42 ± 0.06^ab % ID/g"},
      {"measurement": "Biodistribution: Muscle", "setting": "[1]", "value": "0.20 ± 0.05^b % ID/g"},
      {"measurement": "Biodistribution: Pancreas", "setting": "[1]", "value": "0.29 ± 0.02^ab % ID/g"},
      {"measurement": "Biodistribution: Spleen", "setting": "[1]", "value": "0.18 ± 0.04^ab % ID/g"},
      {"measurement": "Biodistribution: Stomach", "setting": "[1]", "value": "1.07 ± 0.14^ab % ID/g"},
      {"measurement": "Distribution coefficient logD (pH 7.4)", "setting": "[2]", "value": "−2.99 ± 0.02"}
    ]},
    {"smiles": "CSCC[C@H](NC(=O)[C@H](Cc1c[nH]c2ccccc12)NC(=O)CNC(=O)[C@H](Cc1ccc(O)cc1)NC(=O)[C@H](C)NC(=O)[C@@H](CCC(=O)O)NC(=O)CCSC1CC(=O)N(CCC(=O)NC2CCCN(O)C(=O)C=C(C)CCOC(=O)C(NC(C)=O)CCCN(O)C(=O)C=C(C)CCOC(=O)C(NC(C)=O)CCCN(O)C(=O)C=C(C)CCOC2=O)C1=O)C(=O)N[C@@H](CC(=O)O)C(=O)N[C@@H](Cc1ccccc1)C(N)=O", "note": "(stereo partly shown) [^89Zr-labelled Monomer, metal not drawn]", "values": [
      {"measurement": "Tumour-to-organ ratio (T/O): A431-mock", "setting": "[1]", "value": "7.5 ± 1.8"},
      {"measurement": "Tumour-to-organ ratio (T/O): Blood", "setting": "[1]", "value": "9.0 ± 4.7^b"},
      {"measurement": "Tumour-to-organ ratio (T/O): Bone", "setting": "[1]", "value": "4.7 ± 1.3^b"},
      {"measurement": "Tumour-to-organ ratio (T/O): Heart", "setting": "[1]", "value": "14.8 ± 4.7^b"},
      {"measurement": "Tumour-to-organ ratio (T/O): Intestine", "setting": "[1]", "value": "7.9 ± 2.3"},
      {"measurement": "Tumour-to-organ ratio (T/O): Kidneys", "setting": "[1]", "value": "0.17 ± 0.03^b"},
      {"measurement": "Tumour-to-organ ratio (T/O): Liver", "setting": "[1]", "value": "12.4 ± 2.8^b"},
      {"measurement": "Tumour-to-organ ratio (T/O): Lung", "setting": "[1]", "value": "6.5 ± 1.6^b"},
      {"measurement": "Tumour-to-organ ratio (T/O): Muscle", "setting": "[1]", "value": "15.9 ± 4.2^b"},
      {"measurement": "Tumour-to-organ ratio (T/O): Pancreas", "setting": "[1]", "value": "13.3 ± 2.9^b"},
      {"measurement": "Tumour-to-organ ratio (T/O): Spleen", "setting": "[1]", "value": "18.7 ± 6.1^b"},
      {"measurement": "Tumour-to-organ ratio (T/O): Stomach", "setting": "[1]", "value": "4.9 ± 1.3^b"},
      {"measurement": "Biodistribution: A431-CCK2R tumour (receptor positive)", "setting": "[1]", "value": "1.91 ± 0.40", "unit": "% ID/g"},
      {"measurement": "Biodistribution: A431-mock tumour (receptor negative)", "setting": "[1]", "value": "0.26 ± 0.05^ab % ID/g"},
      {"measurement": "Biodistribution: Blood", "setting": "[1]", "value": "0.30 ± 0.19^ab % ID/g"},
      {"measurement": "Biodistribution: Bone", "setting": "[1]", "value": "0.42 ± 0.10^ab % ID/g"},
      {"measurement": "Biodistribution: Heart", "setting": "[1]", "value": "0.14 ± 0.05^ab % ID/g"},
      {"measurement": "Biodistribution: Intestine", "setting": "[1]", "value": "0.27 ± 0.10^abd % ID/g"},
      {"measurement": "Biodistribution: Kidneys", "setting": "[1]", "value": "11.3 ± 2.10^ab % ID/g"},
      {"measurement": "Biodistribution: Liver", "setting": "[1]", "value": "0.16 ± 0.04^abd % ID/g"},
      {"measurement": "Biodistribution: Lung", "setting": "[1]", "value": "0.31 ± 0.09^ab % ID/g"},
      {"measurement": "Biodistribution: Muscle", "setting": "[1]", "value": "0.13 ± 0.04^ab % ID/g"},
      {"measurement": "Biodistribution: Pancreas", "setting": "[1]", "value": "0.15 ± 0.04^abd % ID/g"},
      {"measurement": "Biodistribution: Spleen", "setting": "[1]", "value": "0.12 ± 0.04^ab % ID/g"},
      {"measurement": "Biodistribution: Stomach", "setting": "[1]", "value": "0.42 ± 0.14^abd % ID/g"},
      {"measurement": "Distribution coefficient logD (pH 7.4)", "setting": "[2]", "value": "−3.17 ± 0.06"}
    ]}
  ]
}
